Experimental data: the supplement of paper PMC9170038

System: MS2 coat protein
Assay: apparent KD of MS2 coat protein; higher = weaker reporter binding
Conditions: Eterna round: R107; input ligand: arginine 13.2 mM
Procedure, shortened: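 Apparent KD per design is the median of normalised cluster binding-curve fits. Designed RNA switches transcribed on-chip from Illumina sequencing clusters were titrated with SNAP-549-labelled MS2 coat protein in twofold steps from 0.7 or 1.5 nM to 3 µM, with 0.8–1.5 h down to 10–20 min per step. Buffer: 100 mM Tris-HCl pH 7.5, 80 mM KCl, 4 mM MgCl2, without or with constant ligand.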

| Sequence | apparent KD of MS2 coat protein [µM] |
| --- | --- |
| GUAUACAUGAGGAUCACCCAUGUACCAGAAGGAGCGCUGGAAACAGCAGGUAGGUCGCUGGUAGGUCCUCUAUCUAGACGUUCUU [EAA NP+V+V2 #6] | 0.0405 |
| AUACAUGAGGAUCACCCAUGUAUGGAUGAAGGAGCGACCAGAGGGUCAGGUAGGUCGCAUCACAUGAGGAUCACCCAUGUAGAAA [DOUBLE!!! :-D #11] | 0.0203 |
| GUCGUGGUCGGAAGGAGCGACAUGAGGAUCACCCAUGUCUCCCGUUAUGGGAGUUCCUUAGGUCAGGUAGGUCGCCGACUGCGGC [#1 Exclusion - Arginine B Attempt #23 (Inspired by Omei)] | 0.0547 |
| UACAUGAGGAUCACCCAUGUAUUGCCGGUACGAGGACCGGUACGGCCGCCACUCGGGACAUGAGGAUCACCCAUGUGCUGCUAUU [Same State Trypophan A GF 23] | 0.0287 |
| CGAAAGCUCCUUAUGUGCUUUCGACUGGAAGGAGCGAGCGAAAGCUCAGGUAGGUCGCCAGAAACAUGAGGAUCACCCAUGUAAU [(A)''-(M)'-(A)'(Arg1)-(Arg2)-(M1)-(M2)_Design9] | 0.0298 |
| UACAUGAGGAUCACCCAUGUAUACAUGGAUACCAGCGACAAUGGGCGCCCUUGGCAGCUAGUGGAUGGAGGGUGGCCACAGUACU [Exclusion Theophyline A GF5] | 0.0255 |
| AAUAUAAGUGUAAUUAUAUUUAUAUCUGAUACCAGACUCUCAUGUGUCCCUUGGCAGCAGUUACAUGAGGAUCACCCAUGUAUUA [JR_Nu_SSTheophyA_Sub025] | 0.0306 |
| UGUAUGUGAUCUGAUACCAGUCCAACUGGUAAAUCAUGAGGAUCACCCAUGGAAAAUUGGGACCCUUGGCAGCAGAUCGCAUACU | 0.0941 |
| GGACUAACCAGAAGGAGCGACACAAGCAGAAACUGCAAUCCUCCGCACGAGGAUCACCCGUGUCAGGUAGGUCGCUGGUUAGUCG [ArgBX 28] | 0.0575 |
| CAUACUUGAUCCUAUGAGCCUAUUUGUGAUACCAGCAUCUAAAUUUGCCCUUGGCAGCACUAACAUGAGGAUCACCCAUGUUAUA [JR_Nu_ExcTheophyA_Sub028] | 0.0237 |
| AUGUCAUUGGUGUAGCUGUGAAGUGGCGAUACCAGCGUGGAAACACGCCCUUGGCAGCGCCAAAACAUGAGGAUCACCCAUGUUA [#23 Exclusion-TheophyllineA] | 0.019 |
| CUACAUUUGUAGAAACCGGUCAACAAUAUUCGAGGACCGGUACGGCCGCCACUCGUAUAAUUUAAUACAUGAGGAUCACCCAUGU [Tryptophan A 4] | 0.0148 |
| UUUUAGCAUCGAAGGAGCGCUGGUGAAACUGACUAUGGAACAUGAGGAUCACCCAUGUGCUAGCAGGUAGGUCGCGAUGCUAUUU [SSAB NP+V+V2 #10] | 0.0169 |
| AGUUCCAGGUCGGCCGCCACUGGCGUGGCCGGUCCUCGGACUUACAUGAGGAUCACCCAUGUGAACAGGACCGGGACCGCAUGGG [Exclusion Tryptophan B GF 25] | 0.03 |
| GCUAGGUCUACGGCCGCCACUAGACGUGGGUAAGACAUGAGGAUCACCCAUGUACUACAGGCGCAUAGGACCGGGUAGACCUAGC [SSTB NP+V+V2 #11 Same Structure] | 0.0496 |
| CGUAUUGGAAACAGUACGAGUGAUCCGGUCCGAGGACCGGUACGGCCGCCACUCGAUAUAAAUAAACAUGAGGAUCACCCAUGUA [Ex Tryptophan A 12] | 0.0171 |
| CAUGACAUGAGGAUCACCCAUGUAUCCAGUCGAGGACCGGUACGGCCGCCACUCGGUGCCUUCAAAUUUACAGACAGGUGACAGG [theeternabot_sameState_MS2_Trp_A_30] | 0.0262 |
| UAAACUACACAUGAGGAUCACCCAUGUGGCCGAGGACCGGUACGGCCGCCACUCGUGUGUUAAUAAAAGAACUGCAAGGUUCUGU [Laorat] | 0.0687 |
| AUAACAUGAGGAUCACCCAUGUAAGCUGAAGGAGCGGACGAAAGUCCAGGUAGGUCGCAGCACUCCUUCAACAUGGGAGAGGGAG [(M1)-(M2)-(Arg1)-(Arg2)-(A)'-(M)'-(A)''_Design1] | 0.0399 |

| Sequence | apparent KD of MS2 coat protein [µM] |
| --- | --- |
| AUGUCCUAAACGGCCGCCACUUACAUGAGGAUCACCCAUGUUUACCGAUAUGGUUGUUGCUUUCCAAGGACCGGGUUUAAUCUGC [theeternabot_exclusion_MS2_Trp_B_49] | 0.0131 |
| CAGCACAUGAGGAUCACCCAUGUGAGGGAUACCAGCUCAGGCGUGGGCCCUUGGCAGCUCUCUGGCUGACGAAAGUCAGCCUGUG [#20 SameState-TheophyllineA] | 0.0144 |
| UGUAUGUGAUCUGAUACCAGUCCAACUGGUAAAGCAUGAGGAACACCCAUGCAAAAUUGGGACCCUUGGCAGCAGAUCGCAUACU | 0.169 |
| CGAAUACCAAUUGAUACCAGCAUGUUAACAUGAGGAUCACCCAUGUUAAGGAUAACAUAAUGCCCUUGGCAGCAACGUAAAUUCG [Aa] | 0.0192 |
| GGAUAGGACAGAAGGAGCGUGAGAUGCAAAGCUUCAUUCCUCACAUGAGGAUCACCCAUGUCACAGGUAGGUCGCUGUCCUAUCG [#19 Exclusion - Arginine B] | 0.0786 |
| GGGAGAUGAAAAGAUUGAGCUAAAACAGAAGGAGCGUGAAUUAACACAGGUAGGUCGCUGACAACAUGAGGAUCACCCAUGUAUU [Same State Arginine A GF4] | 0.0249 |
| AAAUGAGGAUCACCCAUGUAACAACGGGAAGGAGCGCCAAACAAGGCAGGUAGGUCGCCCACAUGAGGAUCACCCAUGUGUUGGG [Exclusion Arginine A GF 28] | 0.089 |
| ACAUGAGGAUCACCCAUGUAGAAAGAUCCUCGAGGACCGGUACGGCCGCCACUCGAGUGGCAGUGUGUGCAGAAAAUGCGCGCGC | 0.0286 |
| AAGACAUGAGGAUCACCCAUGUCGUGUGAACGAGGACCGGUACGGCCGCCACUCGUUUGAAAAUAAACGAAUGCGGCCUGGGAAA [Exclusion Tryp A GF1] | 0.0111 |
| GUAUAUUAUAGAAGGAGCGUCGAAAAUGGGUAAACAUGAGGAUCACCCAUGUAAAGGGAACGACAGGUAGGUCGCUAUAAUAUAC [AstromonsSSArgB#14] | 0.154 |
| UAAAUAUUACUGGGUAAGGUAUAAAUAGAUACCAGCCAGAUAACUGGCCCUUGGCAGCUAAACAUGAGGAUCACCCAUGUAUAAU [TheoAS 20 #OpenEnded #Ms2Late] | 0.0235 |
| AGACAUGAGGAUCACCCAUGUAGCAUGGAUACCAGAUGCAGAUUUAUCCCUUGGCAGCUGUGGUAAAGUGAUGCAUUGCUCCUAG [Exclusion - Theophylline A (Freestyle 6)] | 0.0188 |
| CCUGAUGAGUCGGCCGCCACUCCAGUUGUAUUACAGGUUUUCGUAGACAUGAGGAUCACCCAUGUGAGGACCGGGACACACACAG [theeternabot_exclusion_MS2_Trp_B_21] | 0.0117 |
| CGACUGUAAAGUCGACCGGUCAUCAAUAAUCGAGGACCGGUACGGCCGCCACUCGAUGUGAUUUCACAUGAGGAUCACCCAUGUA [Tryptophan A 17] | 0.0241 |
| UUGGGUUUGUGAAGGAGCGGGAAAGUUAUAUAGUUAAUCCUAACAUGAGGAUCACCCAUGUCCCAGGUAGGUCGCGCGGGUUUGG [12.P] | 0.0327 |
| UAAUGCAGGUCGGCCGCCACUACACACAUGAGGAUCACCCAUGUAGUUACUGGGUGAAGUGGCAGUAGGACCGGGACCUGCAUAA [Brourd01] | 0.185 |
| CAGGUCAGGGCGGCCGCCACUGUGGCUACGGUACAUGAGGAUCACCCAUGUUUGUGGUUGAUCUACAGGACCGGGCCCUAACACG [Beabe] | 1.08 |
| GUCUUGGGAUCGGCCGCCACUACAUGAGGAUCACCCAUGUGGACAAAUAGGGUUGUUAAGCUCGGUAGGACCGGGAUUCGGACAU [Oncetexeza] | 0.0221 |
| GGGACAUCGGGAAGGAGCGCAUCCAAACCACACAUGAGGAUCACCCAUGUAUAAAUAUGCAUGCAGGUAGGUCGCCCGGUGUCUC [Ersoatus] | 0.0795 |

Same assay, conditions: Eterna round: R107; input ligand: none

| Sequence | apparent KD of MS2 coat protein [µM] |
| --- | --- |
| GUAUACAUGAGGAUCACCCAUGUACCAGAAGGAGCGCUGGAAACAGCAGGUAGGUCGCUGGUAGGUCCUCUAUCUAGACGUUCUU [EAA NP+V+V2 #6] | 0.193 |
